Experimental data: patent US20240279318A1 (NANJING LEGEND BIOTECH, published 2024)
Where two headings read alike, the source gives them in different places.

Columns and labels:
[1] = target: T1, AFP158/HLA-A*02:01 complex (human); assay: SPR; vs AS170036 VL1VH1
T1 construct: biotinylated on the BSP by BirA for ELISA and panning; also called biotinylated AFP158/HLA-A*02:01 complex; Bio-AFP158

[2] = target: OR1I1 peptide/HLA-A*02:01 complex (recombinant) (human); assay: SPR
[3] = target: ATG9A peptide/HLA-A*02:01 complex (recombinant) (human); assay: SPR
[4] = target: OR51B6 peptide/HLA-A*02:01 complex (recombinant) (human); assay: SPR
[5] = target: BRCA2 peptide/HLA-A*02:01 complex (recombinant) (human); assay: SPR
[6] = target: PTP4A1 peptide/HLA-A*02:01 complex (recombinant) (human); assay: SPR
[7] = target: OR6C1 peptide/HLA-A*02:01 complex (recombinant) (human); assay: SPR
[8] = target: NR2E1 peptide/HLA-A*02:01 complex (recombinant) (human); assay: SPR
[9] = target: CDC14A peptide/HLA-A*02:01 complex (recombinant) (human); assay: SPR
[10] = target: ARNTL peptide/HLA-A*02:01 complex (recombinant) (human); assay: SPR
[11] = target: ZNF566 peptide/HLA-A*02:01 complex (recombinant) (human); assay: SPR
[12] = target: RP1 peptide/HLA-A*02:01 complex (recombinant) (human, UniProt P16213 21-119 (Pongo pygmaeus entry)); assay: SPR
[13] = target: RCL1 peptide/HLA-A*02:01 complex (recombinant) (human, UniProt P16213 21-119 (Pongo pygmaeus entry)); assay: SPR
[14] = target: T1, AFP158/HLA-A*02:01 complex; assay: SPR, crude scFv captured;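 further: Peptide–MHC complex flowed at several concentrations over sensorchip-captured scFv, Kd derived from on- and off-rates obtained from the association and dissociation curves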
Method: The experiment was carried out as follows. The crude scFv protein were captured onto the sensorchip. Different concentrations (320, 160, 40 nM) of AFP158/HLA-A*02:01 complex flowed over the sensorchip surface, and were allowed to bind the antibody fragment for 100 s followed by injection of the running buffer to allow dissociation of the complex. On-rate (kd) and off-rate (kd) were calculated based on association and dissociation curve, and were used to estimate the equilibrium dissociation constant (KD).

[15] = target: T1, AFP158/HLA-A*02:01 complex; assay: SPR; vs AS170036 VL1VH1; remark: listed apart in the source

Binder | Affinity increase [1] | binding result [2] | binding result [3] | binding result [4] | binding result [5] | binding result [6] | binding result [7] | binding result [8] | binding result [9] | binding result [10] | binding result [11] | binding result [12] | binding result [13] | Kd [14] | Affinity increase [15]
AS170036 VL1VH1-VLH98V (scFv) scFv: QSALTQPRSVSGSPGQSVTISCAGTSSDVGSENYVSWYQQHPGKAPKLMIYQVNKRASGVPDRFSGSKSGNTASLTISGLQAEDEADYYCASYRSSDVNIVFGGGTKLTVLGGGGSGGGGSGGGGSEVQLVESGGGLVQPGGSLRLSCAASGFTFSSYAMSWVRQAPGKGLEWVSTINSGTGSPYYADSVKGRFTISRDNSKNTLYLQMNSLRAEDTAVYYCAKNFFDGSWFLGPPAMDYWGQGTLVTVSSHHHHHH | > 2 fold | no binding | no binding | no binding | no binding | no binding | no binding | no binding | no binding | no binding | no binding | no binding | no binding |  | 
AS170036 VL1VH1-VHG108M (scFv) scFv: QSALTQPRSVSGSPGQSVTISCAGTSSDVGSENYVSWYQQHPGKAPKLMIYQVNKRASGVPDRFSGSKSGNTASLTISGLQAEDEADYYCASYRSSDHNIVFGGGTKLTVLGGGGSGGGGSGGGGSEVQLVESGGGLVQPGGSLRLSCAASGFTFSSYAMSWVRQAPGKGLEWVSTINSGTGSPYYADSVKGRFTISRDNSKNTLYLQMNSLRAEDTAVYYCAKNFFDGSWFLMPPAMDYWGQGTLVTVSSHHHHHH | > 2 fold | no binding | no binding | no binding | no binding | no binding | no binding | no binding | no binding | no binding | no binding | no binding | no binding | 58 nM | 4.7 fold
AS170036 VL1VH1-VHG56F (scFv) scFv: QSALTQPRSVSGSPGQSVTISCAGTSSDVGSENYVSWYQQHPGKAPKLMIYQVNKRASGVPDRFSGSKSGNTASLTISGLQAEDEADYYCASYRSSDHNIVFGGGTKLTVLGGGGSGGGGSGGGGSEVQLVESGGGLVQPGGSLRLSCAASGFTFSSYAMSWVRQAPGKGLEWVSTINSGTFSPYYADSVKGRFTISRDNSKNTLYLQMNSLRAEDTAVYYCAKNFFDGSWFLGPPAMDYWGQGTLVTVSSHHHHHH | > 2 fold | no binding | no binding | no binding | no binding | no binding | no binding | no binding | no binding | no binding | no binding | no binding | no binding | 98 nM | 2.3 fold
AS170036 VL1VH1-VHG108E (scFv) scFv: QSALTQPRSVSGSPGQSVTISCAGTSSDVGSENYVSWYQQHPGKAPKLMIYQVNKRASGVPDRFSGSKSGNTASLTISGLQAEDEADYYCASYRSSDHNIVFGGGTKLTVLGGGGSGGGGSGGGGSEVQLVESGGGLVQPGGSLRLSCAASGFTFSSYAMSWVRQAPGKGLEWVSTINSGTGSPYYADSVKGRFTISRDNSKNTLYLQMNSLRAEDTAVYYCAKNFFDGSWFLEPPAMDYWGQGTLVTVSSHHHHHH | > 2 fold | no binding | no binding | no binding | no binding | no binding | no binding | no binding | no binding | no binding | no binding | no binding | no binding | 56 nM | 4.1 fold

Results, then the binder that gave them:

Affinity increase [1] | binding result [2] | binding result [3] | binding result [4] | binding result [5] | binding result [6] | binding result [7] | binding result [8] | binding result [9] | binding result [10] | binding result [11] | binding result [12] | binding result [13] | Kd [14] | Affinity increase [15] | Binder
> 2 fold | no binding | no binding | no binding | no binding | no binding | no binding | no binding | no binding | no binding | no binding | no binding | no binding |  |  | AS170036 VL1VH1-VLH98T (scFv) scFv: QSALTQPRSVSGSPGQSVTISCAGTSSDVGSENYVSWYQQHPGKAPKLMIYQVNKRASGVPDRFSGSKSGNTASLTISGLQAEDEADYYCASYRSSDTNIVFGGGTKLTVLGGGGSGGGGSGGGGSEVQLVESGGGLVQPGGSLRLSCAASGFTFSSYAMSWVRQAPGKGLEWVSTINSGTGSPYYADSVKGRFTISRDNSKNTLYLQMNSLRAEDTAVYYCAKNFFDGSWFLGPPAMDYWGQGTLVTVSSHHHHHH
> 2 fold | no binding | no binding | no binding | no binding | no binding | no binding | no binding | no binding | no binding | no binding | no binding | no binding |  |  | AS170036 VL1VH1-VLH98A (scFv) scFv: QSALTQPRSVSGSPGQSVTISCAGTSSDVGSENYVSWYQQHPGKAPKLMIYQVNKRASGVPDRFSGSKSGNTASLTISGLQAEDEADYYCASYRSSDANIVFGGGTKLTVLGGGGSGGGGSGGGGSEVQLVESGGGLVQPGGSLRLSCAASGFTFSSYAMSWVRQAPGKGLEWVSTINSGTGSPYYADSVKGRFTISRDNSKNTLYLQMNSLRAEDTAVYYCAKNFFDGSWFLGPPAMDYWGQGTLVTVSSHHHHHH
> 2 fold | no binding | no binding | no binding | no binding | no binding | no binding | no binding | no binding | no binding | no binding | no binding | no binding | 140 nM | 2 fold | AS170036 VL1VH1-VHG108N (scFv) scFv: QSALTQPRSVSGSPGQSVTISCAGTSSDVGSENYVSWYQQHPGKAPKLMIYQVNKRASGVPDRFSGSKSGNTASLTISGLQAEDEADYYCASYRSSDHNIVFGGGTKLTVLGGGGSGGGGSGGGGSEVQLVESGGGLVQPGGSLRLSCAASGFTFSSYAMSWVRQAPGKGLEWVSTINSGTGSPYYADSVKGRFTISRDNSKNTLYLQMNSLRAEDTAVYYCAKNFFDGSWFLNPPAMDYWGQGTLVTVSSHHHHHH
> 2 fold | no binding | no binding | no binding | no binding | no binding | no binding | no binding | no binding | no binding | no binding | no binding | no binding |  |  | AS170036 VL1VH1-VLH98P (scFv) scFv: QSALTQPRSVSGSPGQSVTISCAGTSSDVGSENYVSWYQQHPGKAPKLMIYQVNKRASGVPDRFSGSKSGNTASLTISGLQAEDEADYYCASYRSSDPNIVFGGGTKLTVLGGGGSGGGGSGGGGSEVQLVESGGGLVQPGGSLRLSCAASGFTFSSYAMSWVRQAPGKGLEWVSTINSGTGSPYYADSVKGRFTISRDNSKNTLYLQMNSLRAEDTAVYYCAKNFFDGSWFLGPPAMDYWGQGTLVTVSSHHHHHH
> 2 fold | no binding | no binding | no binding | no binding | no binding | no binding | no binding | no binding | no binding | no binding | no binding | no binding |  |  | AS170036 VL1VH1-VLE32W (scFv) scFv: QSALTQPRSVSGSPGQSVTISCAGTSSDVGSWNYVSWYQQHPGKAPKLMIYQVNKRASGVPDRFSGSKSGNTASLTISGLQAEDEADYYCASYRSSDHNIVFGGGTKLTVLGGGGSGGGGSGGGGSEVQLVESGGGLVQPGGSLRLSCAASGFTFSSYAMSWVRQAPGKGLEWVSTINSGTGSPYYADSVKGRFTISRDNSKNTLYLQMNSLRAEDTAVYYCAKNFFDGSWFLGPPAMDYWGQGTLVTVSSHHHHHH
